Measurements published in publication PMC9351521 (Proceedings of the National Academy of Sciences of the …, 2022).
Numbering of substitutions follows the chain as printed. Names may count otherwise. “And” between values parts separate entries of the source, which are not always exact repeats. Equal entries are not always repeated.

Experiments:
Details in all cases: both partners purified
RBD-Fc [1] = target: T1, RBD-Fc (SARS-CoV-2, wild-type RBD (P0DTC2 …)); assay: SPR; […]; Biacore T200, PBS pH 7.4 with 0.005% P20, 25 °C; 1:1 binding model; […]
T1 construct: also called RBD (immobilized as RBD-Fc on the chip)

biotinylated RBD = biotinylated RBD (SARS-CoV-2, wild-type RBD (P0DTC2 …)); assay: SPR; Biacore T200, PBS pH 7.4 with 0.005% P20, 25 °C; […]
[2] = target: T2, biotinylated RBD (wild type) (SARS-CoV-2, wild-type RBD (P0DTC2 …)); assay: SPR; […]; Biacore T200, PBS pH 7.4 with 0.005% P20, 25 °C; kinetic fit, 1:1 binding model; […]
RBD-Fc [3] = target: RBD-Fc (SARS-CoV-2, wild-type RBD (P0DTC2 …)); assay: SPR; Biacore T200, PBS pH 7.4 with 0.005% P20, 25 °C; […]; 1:1 binding model
[4] = target: T2, biotinylated RBD (wild type); assay: SPR; […]; Biacore T200, PBS pH 7.4 with 0.005% P20, 25 °C; […]

B1: H11-A10 (VHH)
VHH: QVQLVESGGGLMQAGGSLRLSCAVSGRTFSTAAMGWFRQAPGKEREFVAAIRWSGGSAYYADSVKGRFTISRDKAKNTVYLQMNSLKYEDTAVYYCAGFSATRSLLSDYATWPYDYWGQGTQVTVSS
RBD-Fc [1]
  Kd: 9.2 nM and 9.3 nM
  koff: 0.055 s⁻¹ and 0.047 s⁻¹
  kon: 5.9e+06 M⁻¹ s⁻¹ and 5e+06 M⁻¹ s⁻¹

B2: nanobody H11-H4 R52A (VHH)
VHH: B1 VHH with R52A, G98Q, F99T, S100H, A101Y, T102V, R103S, S104Y
Biotinylated RBD
  binding result: no binding

B3: H11-H4 Y104F (VHH)
VHH: B1 VHH with G98Q, F99T, S100H, A101Y, T102V, R103S, S104F
[2]
  Kd: 37.4 nM and 33.2 nM
  koff: 0.072 s⁻¹ and 0.074 s⁻¹
  kon: 1.9e+06 M⁻¹ s⁻¹ and 2.2e+06 M⁻¹ s⁻¹

B4: nanobody H11-H4 R52E (VHH)
VHH: B1 VHH with R52E, G98Q, F99T, S100H, A101Y, T102V, R103S, S104Y
Biotinylated RBD
  binding result: no binding

B5: nanobody H11-H4 R52K (VHH)
VHH: B1 VHH with R52K, G98Q, F99T, S100H, A101Y, T102V, R103S, S104Y
Biotinylated RBD
  binding result: no binding

B6: nanobody H11-B5 (VHH)
VHH: B1 VHH with G98S, F99Y, S100Q
RBD-Fc [3]
  t1/2: 14 s

B7: nanobody H11-H6 (VHH)
VHH: B1 VHH with F99S, S100K, A101I
RBD-Fc [3]
  t1/2: 25 s

B8: H11-H6 (VHH)
VHH: B1 VHH with F99S, S100K, A101I
RBD-Fc [1]
  Kd: 8.1 nM and 8.3 nM
  koff: 0.032 s⁻¹ and 0.025 s⁻¹
  kon: 3.9e+06 M⁻¹ s⁻¹ and 3e+06 M⁻¹ s⁻¹

B9: H11-H4 Y101A (VHH)
VHH: B1 VHH with G98Q, F99T, S100H, T102V, R103S, S104Y
[4]
  Kd: 791 nM

B10: H11-H4 Y104S (VHH)
VHH: B1 VHH with G98Q, F99T, S100H, A101Y, T102V, R103S
[4]
  Kd: 273 nM

B11: H11 V101Y R103S (VHH)
VHH: B1 VHH with G98Q, F99T, S100R, A101Y, R103S
[4]
  Kd: 1700 nM

B12: H11-B5 (VHH)
VHH: B1 VHH with G98S, F99Y, S100Q
RBD-Fc [1]
  Kd: 8.8 nM and 7.6 nM
  koff: 0.051 s⁻¹ and 0.046 s⁻¹
  kon: 5.8e+06 M⁻¹ s⁻¹ and 6.1e+06 M⁻¹ s⁻¹

B13: nanobody H11-A10 (VHH)
VHH: B1 VHH
RBD-Fc [3]
  t1/2: 14 s

B14: H11-H4 Q98R H100E (D4 hybrid) (VHH)
VHH: B1 VHH with G98R, F99T, S100E, A101Y, T102V, R103S, S104Y
[2]
  Kd: 4.3 nM and 4.8 nM
  koff: 0.024 s⁻¹ and 0.025 s⁻¹
  kon: 5.5e+06 M⁻¹ s⁻¹ and 5.2e+06 M⁻¹ s⁻¹
